According to doi:10.1101/2024.06.05.597502v1:

Substrate: O=[N+]([O-])c1ccc(O[C@@H]2O[C@H](CO)[C@@H](O)[C@H](O)[C@H]2O)cc1
Experiment: purified protein
Details: 50 mM sodium acetate pH 5.5, 55 °C

B1: AoBgl (Aspergillus oryzae exo-β-(1,3) glucanase) (Aspergillus oryzae RIB40) (protein)
chain: SRLDPRASSFDYNGEKVRGVNLGGWLVLEPWITPSIFDAAGAEAVDEWSLTKILGKEEAEARLSAHWKSFVSAGDFQRMADAGLNHVRIPIGYWALGPLEGDPYVDGQLEYLDKAVEWAGAAGLKVLIDLHGAPGSQNGFDNSGRRGAIQWQQGDTVEQTLDAFDLLAERYLGSDTVAAIEAINEPNIPGGVDQGKLQEYYGSVYGIVNKYNAGTSVVYGDGFLPVESWNGFKTEGSKVVMDTHHYHMFDNGLIAMDIDSHIDAVCQFAHQHLEASDKPVIVGEWTGAVTDCAKYLNGKGNGARYDGSYAADKAIGDCSSLATGFVSKLSDEERSDMRRFIEAQLDAFELKSGWVFWTWKTEGAPGWDMSDLLEAGVFPTSPDDREFPKQC
B1 was tested, and the Km was 5.78 mM.
